Assay results from the DeepSol protein solubility set.

test: soluble on expression in E. coli; label from the status in PepcDB or PDB records

Sequence	soluble on expression in E. coli
MTNDYQQLNYLVETDDEADIIIANLVKQLNELKEILLSLDNQDLEINQVNHRTTVHNTSSNTSNNSTSNNIADGNYNSNFFHNFSKETLQTQAKRGFLLLERCSLVGLQQLELEYLNVLGRSFESHQDKINFLVNLRDLTNDHLLDTEKIVSTLEQIFNVIGGTEYTPILNSFFNQSLNDPDPIQREIGLKQFVANLRQRFKTLLQKTNNSIQQLEAEIQIPTTHIKSDEVMFGPPDMNERLVLNDSETDAILRSIEAELESALQNKKQVVVTAVPPIAANLATDSISQETLEHNLNNTETVNTTTVTVTSASETQVRKPQISLRPIFQGNFPKRLSREDIQRYAHQLQELEQSNEG	soluble
MSLSRPTKFRKVDFFPKSTCFIPLGKPKCEVEEIALKIEELEAIRLKDIKELNQEECAAKMEVSRQTFQNIIDSARKKIAIALTEGNAIAIGGGNFKSKFCKFKCLDCRNTYEINCENDKHMCPSCGSNNIVCNKKTGSCENLCKEGHHHHHH	soluble
MVWMVELKEPFATLWRGKDPFEEVKTLQGEVFRELETRRTLRFEMAGKSYFLKWHRGTTLKEIIKNLLSLRMPVLGADREWNAIHRLRDVGVDTMYGVAFGEKGMNPLTRTSFIITEDLTPTISLEDYCADWATNPPDVRVKRMLIKRVATMVRDMHAAGINHRDCYICHFLLHLPFSGKEEELKISVIDLHRAQLRTRVPGRWRDKDLIGLYFSSMNIGLTQRDIWRFMKVYFAAPLKDILKQEQGLLSQAEAKATKIRERTIRKSL	not soluble
MKVPRLIVAGTESGAGKTTITISIILKLLANQMKVKPYKIGPDYIDPQFHRLASGVPSENLDLWMMNDDQIRYLLIEGSREFDISVIEGVMGLFDGAGSDFTGSTYDLARRTGTPIVLVIDGYGISATAAAIVSGIKAYAGELLRGVIVTRVSGESHYRLIRDAVEEKTGVPVLGYMIRNEKAVLESRHLGLVQAYEIDEIREIFGAIDSSTVIDMHQIIDIARSADKLETLYSPEIERLGTFKVSVAMDSAFDFYYEENLRMLKRMGASIRYFSPMGNEVPDADSDLIYLGGGYPEVFAGKLQSATDTIEAIRHAASIGTGVYAECGGYMFLCRSLESTDGHIYGGVGIIPASVYMDASLVIGYREISAKRDTSILRAGETARGHEFHKSRIRFDGPYDHPFVLKSRSSSFEDGFSSGSVTATYAHIHFLSNPRVAENLLIALEHHHHHH	not soluble
MSLAEPRNGESAGADAVLTKAIEDALGNGTGSVTVDLPQAEGKAKAGDLVTLRYTMTTADGALVATTEESVAADKGRPRSVAFTARSRYRPEEIVAGGEGNLPGVAEAVIGMAPGEKKHLSLSADKAFGARDPQRVVTMATVKSLPRTVAIPAADYVKNFGALPVVGKELPVVPYFPARVIEVTEQQAKLQLLARDGERFTESFGAVETKVDGESVKIRLVPTIGAPFEFRGARGTITAAGEENFTVDFNHPLADRSVVLDLEVVSLTKGEKLAAISVPWLENHDQGLEKAKQEEKPAVLVLYADWCQWCKKLFGETAEDPRIKAVSDRFVWIRVNSDKEKAYKEQYGQDGYPLIVLLDRQGKVAKKLDGFRDAAGLREELNALLEGHHHHHH	soluble
MGETAGREHGTVTRSAEYIGSFPVDDSCLDDQIQQLHTQLKSLKNCKSKRTVSLRFSVKGVKVYDEDETTLLMAHAMCRVSLSTARPSDAQFAFASHNPGNSDAQLYCHLFRARHARAAQFLNLLLCRCFQLYFLEKHPEEAQEECSGKKPSRAPSLLNQGFPLSVSALVSFRRAPTQGLLPGAKLFSQQSTEQVSSPEEGPTSSPTIVRKMAIRTKELRSGAYRSFTFTPLKQRHLQDKLSAPQGGMSVHRTLSRLKEFLRKGTSHCKGMHVSSSQFGRNRRSTGSSCVVLGWRV	not soluble
RGEPYAGQVAVGATVINRTKNPKFPSTIAGVIYQPGAFTAIVDGQIHATMEPNSIRAARDALNGWDPSGGAIYYFNPATATSGWIWSRPLIIIIGKHRFCR	not soluble
MGSDKIHHHHHHMLELTPNLNMNSKKALYVQLYEYIKKEIKDGTIVPFTKLPAKRKLAIHLQVSKNTVEAAYEQLLAEGYIESISRKGYFVCKIEQMVHVEDSEERIEEVLFQEKSYKFDFTQTGIDTNAFPFNMYRKIVNEVWQPYNNELLFLGHPQGEASLREEITNYLYESRGVRCSASQIVLGAGTQILVKLLFQLLKGSNYAVENPGYHRKMVVFEQGEEKVQMLSLDRDGICMADLENSDANVVFVTPSHQFPYGMIMPITRRTQLLQWAKKAKDRYIIEDDYDSEFRYSGRPIPALQGLDTEGKVIYMGTLSKALLPSLRMSYIVLPKNLIIKYQKEYLFYTQSVSRMDQEVIRKFLNEGYWEKHIHKMRVVYRKKRDRLVFEIEKYFSNRVEVIGEDSGLHILLQVHNGMREEELIQEAAKYSIKVYPVSTYYKDGTAPENVVLLGFAILSEEEIAKAIQLLNTAWFRKKVKKHPHT	not soluble
MLNLRGVEIRKGALDGPAQARLIEALRPVLKAAPLFTPTMPNGKPLSVRMTSAGSLGWVTDKGGYRYQPTHPKGMAWPAIPPEVLDLWHGVTGQDRAPDCCLINYYGEGARMGLHQDRDEADLTWPVVSLSLGDDALFRIGNTSRGGKTESVWLNSGDVVVMGGPARLIYHGIDRIRFGSSRLLPKGGRLNLTLRVAGLEHHHHHH	not soluble
MSSKANHAKTVICGIINVTPDSFSDGGQFFALEQALQQARKLIAEGASMLDIGGESTRPGSSYVEIEEEIQRVVPVIKAIRKESDVLISIDTWKSQVAEAALAAGADLVNDITGLMGDEKMPHVVAEARAQVVIMFNPVMARPQHPSSLIFPHFGFGQAFTEEELADFETLPIEELMEAFFERALARAAEAGIAPENILLDPGIGFGLTKKENLLLLRDLDKLHQKGYPIFLGVSRKRFVINILEENGFEVNPETELGFRNRDTASAHVTSIAARQGVEVVRVHDVASHRMAVEIASAIRLADEAENLDLKQYK	soluble
MAEHPIQGLMETAMESIKEMVDVNTIVGDAVQAPDGTVIIPISKVTFGFAAGGGEFASCCSVDEKGEDSSDDSSKPEIKFPFAGGSGAGVSINPVAFMVVGQGQIKLLPVNINSSLEKILDLIPEIIEKTKDSVKKNLKVKKEIKPGNGESCAKSSKEDENELEHHHHHH	soluble
MKAAPLIGISRHRLSTDGEGVTTLVAFHGCPLRCKYCLNPQSLHSEGIWKNYDCEQLYEEVRQDELYFLATNGGITFGGGEPCLQSDFIYEFRQLCGQEWQLSVETSLNVTQENIEKLVPVVDSYIIDIKDINNTIYQKYTGKNNEKVLHNLQYLIEHGKNEQIIVRTPVIPAYNTENDVDNSIRLLKEMGIIQFDRFTYKTPNNCQP	not soluble
MAKTYGLIGLYSRIVNKIEDSKKYLSLAIEMNIQSGNHKSLFVNELRLAHTYQWETNYHKSNKLFKKLKEQSESDTEHSNYLDSVYQHYGKNLFDQSEYQLALKYVKKALRIRVEKGNKELIDSTEYAINICNEKIKQIKEMAGDPLEHHHHHH	not soluble
MGSDKIHHHHHHMAFCNNANLLNVFVRHIANNQLRSLAEVATVAHQLKLLKDDFFASDQQAVAVADRYPQDVFAEHTHDFCELVIVWRGNGLHVLNDRPYRITRGDLFYIHADDKHSYASVNDLVLQNIIYCPERLKLNLDWQGAIPGFNASAGQPHWRLGSMGMAQARQVIGQLEHESSQHVPFANEMAELLFGQLVMLLNRHRYTSDSLPPTSSETLLDKLITRLAASLKSPFALDKFCDEASCSERVLRQQFRQQTGMTINQYLRQVRVCHAQYLLQHSRLLISDISTECGFEDSNYFSVVFTRETGMTPSQWRHLNSQKD	not soluble
MKTALLLKTKSQPFDPYVEAFEKYGRDTAFIPVLRHKRVHEEQLRDKLKNVRKTYCGLIVTSQRVSETLDEALKQEDETERQKILMETPIFTVGPATDDSIRRLGFQQTHGKDCGRGEVLADLIEEWYTTTKQHKPLLFLVGEKHRDIIQRKLGDDRVDSLIVYATQELENTETQIKDTIRKHPTIDWIVAFSPTSICSLLNTFELKIATIGPTTGDYLKKLGTQPNVVSPAPNPESLASSIVAFDEENSS	soluble
MGSDKIHHHHHHMELTGHMKNNRYSIFRNAICIAATAGMLFGCGPDKKPVEKVAEEVVLQPMVTPDFNSDSSYEYVSRQVAFGPRVPNTKPHMDCGEYLAKFFTKHGGWVYRQQFSAKAFDGTDLRLKNIIVSYNQKATKRILLAAHWDTRPFADQDEVDPKKPIDGANDGASGVGILMELARVINLAEKKPDVGFDIILFDGEDYGQPMYYPGPYQNDSWCLGSQYWAKHKFPANYSAYYGILLDMVGAKDATFAKEGVSVENAPSVVNNVWTTAARLGYGKHFINVMSQPITDDHTYINKLALIPMIDIIEYENSDDVYFGSYWHTHNDNMNIIDKNTLKAVGQTLIEVLYREKL	not soluble
MAEEPKGVPLSELSLQQLGELQKNCEQELNFFQESFNALKGLLTRNEKSISALDDVKIATAGHTALIPLSESLYIRAELSDPSKHLVEIGTGYFVELDREKAKAIFDRKKEHITKQVETVEGILKEKRRTRAYISDAFQTKVQSQLATMNTQ	not soluble
MHIRRDQYMNEYVWETCEELDKKIADRVRLIRKRRSISQEKLSKISNVSLGSIKRFETTGQISLLSLTKIAVALNIADDLRNIFTEIPYNSIEEVINERR	not soluble
MYLVCGEALFDVFSLESAARSNELGFTAIAGGSPFNVAVGLRRLGVEAALFGGLSSDYLGARLRRVLEEEGVDCGFLVPSDAPTTLAMVGLDASGSAQYQFRGEGCADRQVRLEHLPTLDGRIRGLHVGSYTLVVTPVADTLLALVRRESGRRLVSLDPNVRLDPQPDIDLWRRRVEAFASHAHLIKASEEDLALLYPGRDPGEVARGWLNPRCRLVFVTHGGAGASVHCTHGSWSRPADTALPLRDTVGAGDTFQAATLAYLRRLDADSPAGLAALSREAIDAMLAFAIRAAAVTCSRVGPDLPFAHEL	not soluble
MTEGKRLQQMELPQMKSIWIDEDQEMEKLYGFQVRQRFMNGPSTDSDEDADEDLGIVLVDSKKLALPNKNNIKLPPLPNYMTINPNINSNHKSLTNKKKNFLGMFKKKDLLSRRHGSAKTAKQSSISTPFDFHHISHANGKREDNPLESHEEKHDVESLVKFTSLAPQPRPDSNVSSKYSNVVMNDSSRIVSSSTIATTMDSHHDGNETNNTPNGNKQLDSPTDLEMTLEDLRNYTFPSVLGDSVSEKTNPSSPSVSSFSGKFKPRELSALHTPELGNCFNVDQSLNSPGNRISVDDVLKFYYQCSETSTPRNT	soluble
GSTAIGINDTYSEVKSDLAQQKAEMELSDLIRKGYHKALVKLKLKKNTVDDISESLRQGGGKLNFDELRQDLKGKGHTDAEIEAIFTKYDQDGDQELTEHEHQQMRDDLEKEREDLDLDHSSL	soluble
